Target: otx2_mouse Otx2 (UniProt P80206)
Sequence (P80206 whole entry): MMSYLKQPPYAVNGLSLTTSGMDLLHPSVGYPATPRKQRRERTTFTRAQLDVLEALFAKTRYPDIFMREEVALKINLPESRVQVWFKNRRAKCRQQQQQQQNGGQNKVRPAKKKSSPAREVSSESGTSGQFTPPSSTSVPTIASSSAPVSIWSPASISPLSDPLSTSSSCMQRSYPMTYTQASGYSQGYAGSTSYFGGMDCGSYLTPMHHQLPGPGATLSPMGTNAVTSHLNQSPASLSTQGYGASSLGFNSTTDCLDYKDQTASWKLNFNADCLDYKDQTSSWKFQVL

Diencephalon/mesencephalon homeobox protein 1 (Mus musculus), Q91ZK4 R122W, sequence (Q91ZK4 whole entry R122W): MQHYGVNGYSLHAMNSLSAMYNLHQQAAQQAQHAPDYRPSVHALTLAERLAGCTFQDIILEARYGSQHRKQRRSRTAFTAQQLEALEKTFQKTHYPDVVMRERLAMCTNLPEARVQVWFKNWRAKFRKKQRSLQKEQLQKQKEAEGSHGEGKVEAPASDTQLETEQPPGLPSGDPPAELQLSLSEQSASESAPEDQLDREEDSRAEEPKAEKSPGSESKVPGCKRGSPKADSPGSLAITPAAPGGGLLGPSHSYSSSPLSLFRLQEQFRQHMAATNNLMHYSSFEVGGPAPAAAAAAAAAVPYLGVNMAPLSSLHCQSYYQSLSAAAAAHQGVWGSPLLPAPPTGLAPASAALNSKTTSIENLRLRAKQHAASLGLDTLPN

- effect of a mutation on the interaction: disrupting interaction
Substance: Diencephalon/mesencephalon homeobox protein 1 (Mus musculus), Q91ZK4 R122W

Reference: IntAct's records for PubMed 15890343
